Test results from US11673916B2, “Neuroprotective peptides and methods of their use” (University of Pittsburgh—Of the Commonwealth System of …, priority 2020, dated 2023).

Biological target: T1, Kv2.1 surface clusters (Rattus norvegicus, UniProt P15387)
T1 construct: expressed in transfected cells; host or cells: primary rat cortical neurons (E16-17 Sprague-Dawley), Lipofectamine 2000
T1 sequence (P15387 1-857): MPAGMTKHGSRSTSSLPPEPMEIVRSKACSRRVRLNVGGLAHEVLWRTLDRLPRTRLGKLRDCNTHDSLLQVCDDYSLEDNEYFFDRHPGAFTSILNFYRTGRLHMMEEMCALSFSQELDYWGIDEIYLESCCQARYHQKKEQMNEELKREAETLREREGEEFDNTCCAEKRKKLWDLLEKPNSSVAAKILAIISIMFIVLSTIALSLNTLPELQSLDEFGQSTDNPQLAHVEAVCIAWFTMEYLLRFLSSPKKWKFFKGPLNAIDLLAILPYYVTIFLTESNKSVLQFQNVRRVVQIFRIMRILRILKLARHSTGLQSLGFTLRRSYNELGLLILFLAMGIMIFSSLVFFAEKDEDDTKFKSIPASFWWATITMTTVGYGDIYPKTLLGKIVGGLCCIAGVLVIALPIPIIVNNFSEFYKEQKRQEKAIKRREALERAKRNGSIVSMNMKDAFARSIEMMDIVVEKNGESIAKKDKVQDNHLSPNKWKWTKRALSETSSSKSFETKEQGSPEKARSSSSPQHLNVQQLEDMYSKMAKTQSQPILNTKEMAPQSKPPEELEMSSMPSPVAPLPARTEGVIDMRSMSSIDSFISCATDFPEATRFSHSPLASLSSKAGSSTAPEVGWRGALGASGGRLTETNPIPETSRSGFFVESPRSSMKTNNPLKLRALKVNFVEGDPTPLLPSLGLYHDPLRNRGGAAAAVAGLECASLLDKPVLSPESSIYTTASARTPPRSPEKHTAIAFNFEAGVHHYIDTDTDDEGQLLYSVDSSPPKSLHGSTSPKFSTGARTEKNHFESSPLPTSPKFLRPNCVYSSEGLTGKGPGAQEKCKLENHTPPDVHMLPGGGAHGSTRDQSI
Experiment: Kv2.1 surface cluster density in live cortical neurons co-transfected with Kv2.1-GFP and peptide-expressing plasmids
Format: cell-based
Conditions: plasmid-driven expression, 24 h after transfection, mean+/-SEM (FIG. 1C)
Experimental: In vitro experiments utilized primary cortical neuronal cultures prepared from embryonic day 16-17 Sprague-Dawley rats of either sex in a protocol described previously (McCord et al., J Physiol (Lond). 592: 3511-3521, 2014). Timed-pregnant rats (Charles River Laboratories, Wilmington, Mass.) were sacrificed by CO2 inhalation. Embryonic cortices were dissociated with trypsin (0.6 mg/mL) and cells plated in sterile 6-well plates on poly-L-ornithine-coated glass coverslips at a density of 670,000 cells per well. Cytosine arabinoside (1-2 μM) was utilized to inhibit non-neuronal proliferation on day 14 in vitro (DIV); cultures were utilized at 21-25 DIV.
Transfections were performed with Lipofectamine 2000 (L2K; Invitrogen, Carlsbad, Calif.). Cortical neuronal cultures on glass coverslips were placed into wells containing 500 μL of Dulbecco's minimum essential medium with 2% HyClone bovine serum (D2C; Thermo Fisher Scientific, Waltham, Mass.). A mixture of 1.5 μg of total cDNA and 2 μL of L2K was prepared in 100 μL of Opti-MEM I (Life Technologies Corp., Grand Island, N.Y.) for each well and added. […]
To analyze Kv2.1 distribution in live primary cortical neurons, cells were transfected with both a tdTomato construct and a GFP-tagged Kv2.1 construct (O'Connell, et al., J Neurosci. 26: 9609-9618, 2006) and imaged on a Nikon A1+ confocal microscope (Nikon, Tokyo, Japan). […] For live images of transfected neurons, object count parameters were customized to define a Kv2.1 cluster as an area of high intensity GFP fluorescence (compared to background), measuring 0.05 μm^2 or larger (Schulien et al., J Physiol (Lond). 594: 2647-2659, 2016). Kv2.1 cluster density was calculated by normalizing the number of Kv2.1 clusters counted to the somatic area of each neuron (#Kv2.1 clusters/μm^2). […] In each neuron analyzed, two populations on Kv2.1-GFP expression were first noted—(a) highly localized signals of clustered Kv2.1 channels, and (b) diffuse background staining that represents freely-dispersed, conducting Kv2.1 channels on the plasma membrane. […]

Row | Substance | mean Kv2.1 surface cluster density
1 | Kv2.2 CT: Kv2.2 channel C-terminal peptide expressed from plasmid pCMV-Kv2.2CT (EVIVDMKSTSSIDSFTSCATDFTETE) | 0.07±0.01 #Kv2.1 clusters/μm^2 of neuronal soma
2 | MKSTSDFSSIST [Sc-1, plasmid expressed scrambled control of DP-1 (pCMV-Sc-1)] | 0.14±0.03 #Kv2.1 clusters/μm^2 of neuronal soma
3 | MKSTSSIDSFTS [DP-1, plasmid expressed expanded declustering peptide (pCMV-DP-1)] | 0.04±0.01 #Kv2.1 clusters/μm^2 of neuronal soma
